One may read the EC50 as the concentration at which the effect is half-maximal.

The target in one test is T1, DR5sh79-115ECDdelHis (human/mouse chimeric).
T1 construct: also called DR5sh79-115ECDdel-FcRbHisCtag
Nature of the test: ECLIA, coated DR5sh79-115ECDdelHis, detection with SULFO-TAG anti-human IgG.

Test [1] concerns the target T2, Cyno DR5Mfdel-K420N (cynomolgus monkey DR5 with deletion of amino acids 185-213 and death domain … (cynomolgus monkey)).
T2 construct: Transiently expressed on the membrane of CHO-S cells; Based on NCBI XP_005562887.1
T2 chain: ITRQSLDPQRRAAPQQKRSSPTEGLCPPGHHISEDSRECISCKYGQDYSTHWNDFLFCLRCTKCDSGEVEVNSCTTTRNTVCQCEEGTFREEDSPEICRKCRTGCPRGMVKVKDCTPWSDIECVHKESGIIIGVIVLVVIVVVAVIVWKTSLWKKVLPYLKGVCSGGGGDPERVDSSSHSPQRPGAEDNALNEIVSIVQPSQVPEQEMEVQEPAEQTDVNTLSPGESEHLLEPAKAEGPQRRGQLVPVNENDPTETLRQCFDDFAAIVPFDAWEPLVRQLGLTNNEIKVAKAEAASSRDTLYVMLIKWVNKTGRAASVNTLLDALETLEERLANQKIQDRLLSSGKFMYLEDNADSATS
Nature of the test: flow cytometry on CHO-S cells transiently expressing cynomolgus monkey DR5; average of n = 4, SD in brackets.

The target of a further test is T3, DR5sh139-166ECDdelHis (human/mouse chimeric).
T3 construct: also called DR5sh139-166ECDdel-FcRbHisCtag
T3 chain: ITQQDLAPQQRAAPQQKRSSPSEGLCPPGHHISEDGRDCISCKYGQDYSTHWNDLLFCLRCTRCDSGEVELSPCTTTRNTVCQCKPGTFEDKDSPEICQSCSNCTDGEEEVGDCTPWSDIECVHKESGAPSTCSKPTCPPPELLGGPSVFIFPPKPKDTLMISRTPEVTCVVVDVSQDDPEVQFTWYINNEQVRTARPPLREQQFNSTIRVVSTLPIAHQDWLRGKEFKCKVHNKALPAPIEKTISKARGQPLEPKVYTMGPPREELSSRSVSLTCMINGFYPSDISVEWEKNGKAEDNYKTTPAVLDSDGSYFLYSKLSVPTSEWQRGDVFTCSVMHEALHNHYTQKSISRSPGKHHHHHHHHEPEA
Briefly: ECLIA, coated DR5sh139-166ECDdelHis, detection with SULFO-TAG anti-human IgG.

Where “and” joins values, the source holds several entries; their conditions need not be identical. Identical values can stand only once.

B1: IgG1-hDR5-05-E430G (antibody, V domains shown)
VH: QVQLVQSGAEVKKPGASVKVSCKASGFNIKDTHMHWVRQAPGQRLEWIGRIDPANGNTEYDQKFQGRVTITVDTSASTAYMELSSLRSEDTAVYYCARWGTNVYFAYWGQGTLVTVSS
VL: DIQLTQSPSSLSASVGDRVTITCSASSSVSYMYWYQQKPGKAPKPWIYRTSNLASGVPSRFSGSGSGTDFTLTISSLQPEDFATYYCQQYHSYPPTFGGGTKVEIKR
notes: also called second antibody; component of HexaBody-DR5/DR5
With B1, the binding result with DR5sh79-115ECDdelHis is given as “no binding”. Moreover, in test [1], the EC50 is 0.17 µg/mL and 1.16 nM.

B2: IgG1-hDR5-01-G56T-E430G (antibody, V domains shown)
VH: EVQLQQSGAEVVKPGASVKLSCKASGFNIKDTFIHWVKQAPGQGLEWIGRIDPANTNTKYDPKFQGKATITTDTSSNTAYMELSSLRSEDTAVYYCVRGLYTYYFDYWGQGTLVTVSS
VL: EIVMTQSPATLSVSPGERATLSCRASQSISNNLHWYQQKPGQAPRLLIKFASQSITGIPARFSGSGSGTEFTLTISSLQSEDFAVYYCQQGNSWPYTFGQGTKLEIKR
notes: also called first antibody; component of HexaBody-DR5/DR5
Consider B2, for which the binding result in the test with DR5sh139-166ECDdelHis is listed as “no binding”. Also, in test [1], the EC50 is 0.27 µg/mL and 1.77 nM.
